According to publication PMC9482650, “Quantitative fragmentomics allow affinity mapping of interactomes” (Nature Communications, 2022):
Changes are numbered by the printed parent chain.

T1: TIAM2, Q8IVF5
T1 sequence (Q8IVF5 885-986, limits assumed, looked up): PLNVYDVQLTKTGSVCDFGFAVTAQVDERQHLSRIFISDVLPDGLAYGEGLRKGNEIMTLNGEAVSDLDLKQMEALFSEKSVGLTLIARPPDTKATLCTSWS

T2: TX1BP3, O14907
T2 sequence (O14907 10-122, limits assumed, looked up): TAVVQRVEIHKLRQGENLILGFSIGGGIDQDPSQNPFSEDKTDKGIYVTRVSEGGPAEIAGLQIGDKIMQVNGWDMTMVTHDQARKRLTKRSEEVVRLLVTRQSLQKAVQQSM

T3: MPDZ_10, O75970
T3 sequence (O75970 1624-1722, limits assumed, looked up): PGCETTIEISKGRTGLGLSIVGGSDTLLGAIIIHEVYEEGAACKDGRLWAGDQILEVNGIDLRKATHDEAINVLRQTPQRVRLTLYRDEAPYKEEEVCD

T4: LIN7C, Q9NUP9
T4 sequence (Q9NUP9 88-185, limits assumed, looked up): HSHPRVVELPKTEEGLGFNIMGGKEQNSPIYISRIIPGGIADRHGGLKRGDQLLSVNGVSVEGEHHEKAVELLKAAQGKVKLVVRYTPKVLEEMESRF

T5: GRIP1_4, Q9Y3R0
T5 sequence (Q9Y3R0 467-571, limits assumed, looked up): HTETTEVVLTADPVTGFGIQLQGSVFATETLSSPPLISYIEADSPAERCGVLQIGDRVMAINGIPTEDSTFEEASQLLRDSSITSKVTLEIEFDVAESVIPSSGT

T6: PDZD2_2, O15018
T6 sequence (O15018 329-429, limits assumed, looked up): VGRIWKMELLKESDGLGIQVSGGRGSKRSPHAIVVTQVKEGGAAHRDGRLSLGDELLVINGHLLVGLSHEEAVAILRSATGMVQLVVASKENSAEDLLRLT

T7: LIN7B, Q9HAP6
T7 sequence (Q9HAP6 88-185, limits assumed, looked up): T4 sequence (Q9NUP9 88-185, limits assumed, looked up) with S2A, E13D, I35V, I40V, H65Q, K79S, K89R, S96A

T8: MPDZ_5, O75970
T8 sequence (O75970 695-796, limits assumed, looked up): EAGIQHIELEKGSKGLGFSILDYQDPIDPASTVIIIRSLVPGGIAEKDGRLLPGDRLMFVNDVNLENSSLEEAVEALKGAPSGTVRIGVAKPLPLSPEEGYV

T9: MPP6, Q9NZW5
T9 sequence (Q9NZW5 125-219, limits assumed, looked up): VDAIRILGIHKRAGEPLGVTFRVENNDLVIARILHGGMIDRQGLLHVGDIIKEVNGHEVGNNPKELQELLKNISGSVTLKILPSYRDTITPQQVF

T10: ARHGAP21, Q5T5U3
T10 sequence (Q5T5U3 45-169, limits assumed, looked up): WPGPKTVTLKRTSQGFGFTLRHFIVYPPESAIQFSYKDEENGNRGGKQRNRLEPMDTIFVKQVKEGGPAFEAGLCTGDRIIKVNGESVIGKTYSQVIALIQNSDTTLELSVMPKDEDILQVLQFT

T11: DLG3_1, Q92796
T11 sequence (Q92796 125-227, limits assumed, looked up): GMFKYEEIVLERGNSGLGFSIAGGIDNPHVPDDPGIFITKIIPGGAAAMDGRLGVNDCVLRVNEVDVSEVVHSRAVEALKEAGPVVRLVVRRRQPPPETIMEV

T12: SNTB1, Q13884
T12 sequence (Q13884 107-205, limits assumed, looked up): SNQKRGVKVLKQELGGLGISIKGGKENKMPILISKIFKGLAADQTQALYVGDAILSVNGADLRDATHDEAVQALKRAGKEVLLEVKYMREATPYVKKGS

B1: RNF146, Q9NTX7 (peptide)
chain: PDGQCTVTEV
B2: MMP24, Q9Y5R2 (peptide)
chain: YYKRPVQEWV
B3: KIF17, Q9P2E2 (peptide)
chain: SKSNFGSEPL
B4: MYOZ2, Q9NPC6 (peptide)
chain: DTTVPESEDL

Key:
Assay in all cases: holdup assay
Parameters in all cases: key: below the threshold = too weak to quantify, mostly under pKd 3.1 to 4
Details in all cases: plain residues with an end cap or a label only (N-terminal biotin on a linker: ado-ado)
FRMPD2_2, Q68DX3 = target: FRMPD2_2, Q68DX3
Sequence of FRMPD2_2, Q68DX3 (Q68DX3 944-1038): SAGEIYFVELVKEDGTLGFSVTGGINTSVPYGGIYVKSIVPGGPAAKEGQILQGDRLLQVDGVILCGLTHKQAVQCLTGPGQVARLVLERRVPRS

Inadl_6, Q8NI35 = target: Inadl_6, Q8NI35
Sequence of Inadl_6, Q8NI35 (Q8NI35 1058-1167): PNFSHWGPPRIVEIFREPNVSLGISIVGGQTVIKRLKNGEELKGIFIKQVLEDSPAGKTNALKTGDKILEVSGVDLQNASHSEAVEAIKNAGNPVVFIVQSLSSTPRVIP

TIAM2, Q8IVF5 = target: T1, TIAM2, Q8IVF5
TX1BP3, O14907 = target: T2, TX1BP3, O14907
MPDZ_10, O75970 = target: T3, MPDZ_10, O75970
SCRIB_3, Q14160 = target: SCRIB_3, Q14160
Sequence of SCRIB_3, Q14160 (Q14160 999-1103): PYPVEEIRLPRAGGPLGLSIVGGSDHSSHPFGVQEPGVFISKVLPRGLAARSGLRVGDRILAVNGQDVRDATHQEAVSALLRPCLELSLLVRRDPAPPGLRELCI

LIN7C, Q9NUP9 = target: T4, LIN7C, Q9NUP9
GRIP1_4, Q9Y3R0 = target: T5, GRIP1_4, Q9Y3R0
SNX27, Q96L92 = target: SNX27, Q96L92
AHNAK1, Q09666 = target: AHNAK1, Q09666
Sequence of AHNAK1, Q09666 (Q09666 4-100): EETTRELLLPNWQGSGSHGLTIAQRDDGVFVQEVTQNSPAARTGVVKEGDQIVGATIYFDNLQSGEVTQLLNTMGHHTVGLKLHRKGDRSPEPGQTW

PDZD2_2, O15018 = target: T6, PDZD2_2, O15018
LIN7B, Q9HAP6 = target: T7, LIN7B, Q9HAP6
DLG5_1, Q8TDM6 = target: DLG5_1, Q8TDM6
Sequence of DLG5_1, Q8TDM6 (Q8TDM6 617-713): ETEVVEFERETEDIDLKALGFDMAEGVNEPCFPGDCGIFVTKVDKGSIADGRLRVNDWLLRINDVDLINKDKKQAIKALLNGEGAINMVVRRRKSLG

LAP2, Q96RT1 = target: LAP2, Q96RT1
Sequence of LAP2, Q96RT1 (Q96RT1 other isoform, or with tags, fused parts or gaps): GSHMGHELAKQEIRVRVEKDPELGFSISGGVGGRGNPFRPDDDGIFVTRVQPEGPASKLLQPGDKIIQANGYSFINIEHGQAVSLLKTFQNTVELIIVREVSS

LNX1_2, Q8TBB1 = target: LNX1_2, Q8TBB1
Sequence of LNX1_2, Q8TBB1 (Q8TBB1 371-470): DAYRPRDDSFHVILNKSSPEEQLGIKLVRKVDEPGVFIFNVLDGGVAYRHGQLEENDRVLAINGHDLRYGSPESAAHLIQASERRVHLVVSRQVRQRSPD

MPDZ_5, O75970 = target: T8, MPDZ_5, O75970
MPP6, Q9NZW5 = target: T9, MPP6, Q9NZW5
GRID2IP_2, A4D2P6 = target: GRID2IP_2, A4D2P6
Sequence of GRID2IP_2, A4D2P6 (A4D2P6 272-370): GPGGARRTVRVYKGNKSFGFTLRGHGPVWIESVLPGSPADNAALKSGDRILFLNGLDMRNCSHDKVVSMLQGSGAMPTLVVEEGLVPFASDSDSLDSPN

GRASP, Q7Z6J2 = target: GRASP, Q7Z6J2
Sequence of GRASP, Q7Z6J2 (Q7Z6J2 96-193): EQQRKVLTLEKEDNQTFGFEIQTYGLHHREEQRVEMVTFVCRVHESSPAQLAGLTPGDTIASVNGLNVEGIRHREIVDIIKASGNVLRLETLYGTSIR

PICK1, Q9NRD5 = target: PICK1, Q9NRD5
Sequence of PICK1, Q9NRD5 (Q9NRD5 17-115): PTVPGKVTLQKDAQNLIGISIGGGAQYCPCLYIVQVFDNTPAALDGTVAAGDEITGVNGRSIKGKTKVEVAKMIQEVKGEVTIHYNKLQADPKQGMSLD

ARHGAP21, Q5T5U3 = target: T10, ARHGAP21, Q5T5U3
FRMPD2_1, Q68DX3 = target: FRMPD2_1, Q68DX3
Sequence of FRMPD2_1, Q68DX3 (Q68DX3 770-861): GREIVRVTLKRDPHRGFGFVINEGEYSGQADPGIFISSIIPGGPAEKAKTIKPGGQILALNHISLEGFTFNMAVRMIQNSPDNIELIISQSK

DLG3_1, Q92796 = target: T11, DLG3_1, Q92796
SNTB1, Q13884 = target: T12, SNTB1, Q13884
MAGI1_2, Q96QZ7 = target: MAGI1_2, Q96QZ7
Sequence of MAGI1_2, Q96QZ7 (Q96QZ7 456-580): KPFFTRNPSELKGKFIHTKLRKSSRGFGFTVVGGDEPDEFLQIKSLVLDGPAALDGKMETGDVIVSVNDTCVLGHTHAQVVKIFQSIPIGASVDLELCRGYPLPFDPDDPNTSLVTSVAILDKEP

pKd (FRMPD2_2, Q68DX3) | pKd (Inadl_6, Q8NI35) | pKd (TIAM2, Q8IVF5) | pKd (TX1BP3, O14907) | pKd (MPDZ_10, O75970) | pKd (SCRIB_3, Q14160) | pKd (LIN7C, Q9NUP9) | pKd (GRIP1_4, Q9Y3R0) | pKd (SNX27, Q96L92) | pKd (AHNAK1, Q09666) | pKd (PDZD2_2, O15018) | pKd (LIN7B, Q9HAP6) | pKd (DLG5_1, Q8TDM6) | pKd (LAP2, Q96RT1) | pKd (LNX1_2, Q8TBB1) | pKd (MPDZ_5, O75970) | pKd (MPP6, Q9NZW5) | pKd (GRID2IP_2, A4D2P6) | pKd (GRASP, Q7Z6J2) | pKd (PICK1, Q9NRD5) | further results | Binder
4.44 | 3.95 | below the threshold | 4.78 | below the threshold | 4.72 | below the threshold | below the threshold | 5.19 | below the threshold | 4.79 | below the threshold | below the threshold | 4.22 | 3.99 | below the threshold | 3.92 | 4.17 | 4.7 | below the threshold | pKd (ARHGAP21, Q5T5U3): below the threshold; pKd (FRMPD2_1, Q68DX3): below the threshold; pKd (DLG3_1, Q92796): 3.87; pKd (SNTB1, Q13884): 4.37; pKd (MAGI1_2, Q96QZ7): 3.53 | B1
below the threshold | 3.7 | 4.08 | 3.87 | below the threshold | 3.52 | below the threshold | below the threshold | 4.2 | below the threshold | 5.65 | below the threshold | below the threshold | 4.51 | 3.71 | 4.03 | below the threshold | 3.89 | 3.88 | below the threshold | pKd (ARHGAP21, Q5T5U3): below the threshold; pKd (FRMPD2_1, Q68DX3): 3.85; pKd (DLG3_1, Q92796): below the threshold; pKd (SNTB1, Q13884): below the threshold; pKd (MAGI1_2, Q96QZ7): below the threshold | B2
below the threshold | below the threshold | below the threshold | 5.05 | below the threshold | below the threshold | 4.09 | below the threshold | below the threshold | below the threshold | below the threshold | below the threshold | below the threshold | below the threshold | below the threshold | below the threshold | 3.66 | below the threshold | below the threshold | below the threshold | pKd (ARHGAP21, Q5T5U3): 3.56; pKd (FRMPD2_1, Q68DX3): below the threshold; pKd (DLG3_1, Q92796): below the threshold; pKd (SNTB1, Q13884): below the threshold; pKd (MAGI1_2, Q96QZ7): below the threshold | B3
below the threshold | below the threshold | below the threshold | below the threshold | below the threshold | below the threshold | below the threshold | below the threshold | 3.65 | below the threshold | below the threshold | below the threshold | below the threshold | below the threshold | below the threshold | below the threshold | below the threshold | below the threshold | below the threshold | below the threshold | pKd (ARHGAP21, Q5T5U3): below the threshold; pKd (FRMPD2_1, Q68DX3): below the threshold; pKd (DLG3_1, Q92796): below the threshold; pKd (SNTB1, Q13884): below the threshold; pKd (MAGI1_2, Q96QZ7): below the threshold | B4
